From publication PMC3580015 (Archives of biochemistry and biophysics, 2013)
Where “and” joins values, the source holds several entries; their conditions need not be identical. Identical values can stand only once.

B1: full length rat phenylalanine hydroxylase (PAH) (enzyme, UniProt P04176 1-453, looked up)
chain: MAAVVLENGVLSRKLSDFGQETSYIEDNSNQNGAISLIFSLKEEVGALAKVLRLFEENDINLTHIESRPSRLNKDEYEFFTYLDKRTKPVLGSIIKSLRNDIGATVHELSRDKEKNTVPWFPRTIQELDRFANQILSYGAELDADHPGFKDPVYRARRKQFADIAYNYRHGQPIPRVEYTEEEKQTWGTVFRTLKALYKTHACYEHNHIFPLLEKYCGFREDNIPQLEDVSQFLQTCTGFRLRPVAGLLSSRDFLGGLAFRVFHCTQYIRHGSKPMYTPEPDICHELLGHVPLFSDRSFAQFSQEIGLASLGAPDEYIEKLATIYWFTVEFGLCKEGDSIKAYGAGLLSSFGELQYCLSDKPKLLPLELEKTACQEYSVTEFQPLYYVAESFSDAKEKVRTFAATIPRPFSVRYDPYTQRVEVLDNTQQLKILADSINSEVGILCNALQKIKS
B2: full length human phenylalanine hydroxylase (PAH) (enzyme, UniProt P00439 1-452, looked up)
chain: MSTAVLENPGLGRKLSDFGQETSYIEDNCNQNGAISLIFSLKEEVGALAKVLRLFEENDVNLTHIESRPSRLKKDEYEFFTHLDKRSLPALTNIIKILRHDIGATVHELSRDKKKDTVPWFPRTIQELDRFANQILSYGAELDADHPGFKDPVYRARRKQFADIAYNYRHGQPIPRVEYMEEEKKTWGTVFKTLKSLYKTHACYEYNHIFPLLEKYCGFHEDNIPQLEDVSQFLQTCTGFRLRPVAGLLSSRDFLGGLAFRVFHCTQYIRHGSKPMYTPEPDICHELLGHVPLFSDRSFAQFSQEIGLASLGAPDEYIEKLATIYWFTVEFGLCKQGDSIKAYGAGLLSSFGELQYCLSEKPKLLPLELEKTAIQNYTVTEFQPLYYVAESFNDAKEKVRNFAATIPRPFSVRYDPYTQRIEVLDNTQQLKILADSINSEIGILCSALQKIK

Target: the molecule itself
Test: native gel or EMSA

Protein	stoichiometry N
B1	4 and 2
B2	4 and 2
